Source: publication PMC7124252

Tests used:
CTCF (human) [1] = target: T1, CTCF (human) (UniProt P49711); experiment: EMSA; details: 10 mM Tris (pH not stated), 50 mM KCl, 5 mM MgCl2, 0.1 mM ZnSO4, 1 mM DTT, 0.1% NP-40, 50 ng/µl poly(dI-dC), 2.5% glycerol, 20 fmol probe, 30 min at 25 C
T1 sequence: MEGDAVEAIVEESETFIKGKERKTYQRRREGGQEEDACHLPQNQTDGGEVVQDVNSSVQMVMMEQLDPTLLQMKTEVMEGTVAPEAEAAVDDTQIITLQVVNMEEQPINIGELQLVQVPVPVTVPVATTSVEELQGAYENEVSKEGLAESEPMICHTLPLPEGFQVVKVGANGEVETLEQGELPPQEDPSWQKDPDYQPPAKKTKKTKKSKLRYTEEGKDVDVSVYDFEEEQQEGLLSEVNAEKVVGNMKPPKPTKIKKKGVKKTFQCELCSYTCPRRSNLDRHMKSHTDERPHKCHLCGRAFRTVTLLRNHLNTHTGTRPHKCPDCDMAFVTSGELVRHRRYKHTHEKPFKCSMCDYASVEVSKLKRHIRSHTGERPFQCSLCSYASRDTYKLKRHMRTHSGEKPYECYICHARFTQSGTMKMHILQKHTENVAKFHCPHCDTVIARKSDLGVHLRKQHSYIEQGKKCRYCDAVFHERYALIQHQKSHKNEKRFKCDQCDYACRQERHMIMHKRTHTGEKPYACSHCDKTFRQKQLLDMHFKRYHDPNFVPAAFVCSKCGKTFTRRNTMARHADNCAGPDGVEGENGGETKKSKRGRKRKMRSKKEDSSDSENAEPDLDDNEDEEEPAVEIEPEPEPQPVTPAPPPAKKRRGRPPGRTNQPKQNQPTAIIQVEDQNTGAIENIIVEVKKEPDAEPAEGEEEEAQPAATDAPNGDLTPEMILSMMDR

CTCF (human) [2] = experiment: EMSA; parameters: unit not given here; details: 10 mM Tris (pH not stated), 50 mM KCl, 5 mM MgCl2, 0.1 mM ZnSO4, 1 mM DTT, 0.1% NP-40, 50 ng/µl poly(dI-dC), 2.5% glycerol, 20 fmol probe, 30 min at 25 C

“ACCTGTAACATTTCCTTTCCAGTTGCCGGATTCATTATAAGGATATGTACAGTTTGTTGCGTTGTATTGCGCCACCCGTTGGCTTAGGAAAGAACTGCCCTCGTAGGTTGGCCTACAAGGTTTGCAACTTCAGAGCCTC (double strand) [Cacna1b e37a DNA probe (139 bp)]” was tested, and the binding signal (CTCF (human) [1]) was “binds”.
Cacna1b e37a DNA probe (139 bp) was tested, and the Kd (CTCF (human) [2]) was 0.0461.
For “TCAGTGCAGGGTCAAGGTCTACCTTGTATGCAACTCGAGCCGGGCATTTCTTCCCCAACCCCAGAGGTGGGGACATGTGTTTCAGCATCTCAAACATGTCATTGTAACTGATGCGCCCACTGGAAACCCGTTCCAGAGG (double strand) [Cacna1b e37b DNA probe (139 bp)]”, the binding (CTCF (human) [1]) was “no binding”.
